Experimental data taken from patent publication US20210324028A1 (Pfizer, published 2021).

T1: human IL-2Rβ (human, UniProt P14784 27-240, limits assumed)
T1 construct: also called hIL-2Rβ; IL-2 receptor beta
T1 sequence (looked up): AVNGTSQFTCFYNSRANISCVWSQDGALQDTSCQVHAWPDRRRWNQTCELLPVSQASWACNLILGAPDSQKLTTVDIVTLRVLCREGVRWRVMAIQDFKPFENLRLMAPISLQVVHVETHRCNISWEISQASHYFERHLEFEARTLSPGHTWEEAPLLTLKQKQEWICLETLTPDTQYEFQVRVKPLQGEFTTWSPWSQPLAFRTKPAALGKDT


Assays:
human IL-15Rα = biological target: T2, human IL-15Rα (human, UniProt Q13261 31-205, limits assumed); test: SPR, steady state
T2 construct: also called hIL-15Rα; IL-15 receptor alpha
T2 sequence (Q13261 31-205 limits assumed): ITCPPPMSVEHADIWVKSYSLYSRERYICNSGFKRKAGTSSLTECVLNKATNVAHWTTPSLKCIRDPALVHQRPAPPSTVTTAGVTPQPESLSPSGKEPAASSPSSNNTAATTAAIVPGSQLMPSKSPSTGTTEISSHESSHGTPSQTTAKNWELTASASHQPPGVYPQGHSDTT

human IL-2Rβ = biological target: T1, human IL-2Rβ; test: SPR, steady state

| Binder | Kd (human IL-15Rα) | Kd (human IL-2Rβ) |
| --- | --- | --- |
| hIL-15 V49R/N4L (ligand) NWVLVISDLKKIEDLIQSMHIDATLYTESDVHPSCKVTAMKCFLLELQRISLESGDASIHDTVENLIILANNSLSSNGNVTESGCKECEELEEKNIKEFLQSFVHIVQMFINTGGGGSGHHHHHHHHGGGLNDIFEAQKIEWHE | 98.6 nM | 429 nM |
| hIL-15 V49R/Q108K (ligand) NWVNVISDLKKIEDLIQSMHIDATLYTESDVHPSCKVTAMKCFLLELQRISLESGDASIHDTVENLIILANNSLSSNGNVTESGCKECEELEEKNIKEFLQSFVHIVKMFINTGGGGSGHHHHHHHHGGGLNDIFEAQKIEWHE | 85.4 nM | 249 nM |
| hIL-15 V49R/S7D (ligand) NWVNVIDDLKKIEDLIQSMHIDATLYTESDVHPSCKVTAMKCFLLELQRISLESGDASIHDTVENLIILANNSLSSNGNVTESGCKECEELEEKNIKEFLQSFVHIVQMFINTGGGGSGHHHHHHHHGGGLNDIFEAQKIEWHE | 121 nM | > 500 nM |
| hIL-15 V49R/S7T (ligand) NWVNVITDLKKIEDLIQSMHIDATLYTESDVHPSCKVTAMKCFLLELQRISLESGDASIHDTVENLIILANNSLSSNGNVTESGCKECEELEEKNIKEFLQSFVHIVQMFINTGGGGSGHHHHHHHHGGGLNDIFEAQKIEWHE | 93.9 nM | > 500 nM |
| hIL-15 V49R/N4W (ligand) NWVWVISDLKKIEDLIQSMHIDATLYTESDVHPSCKVTAMKCFLLELQRISLESGDASIHDTVENLIILANNSLSSNGNVTESGCKECEELEEKNIKEFLQSFVHIVQMFINTGGGGSGHHHHHHHHGGGLNDIFEAQKIEWHE | 143 nM | 438 nM |
| hIL-15 V49R/S7K (ligand) NWVNVIKDLKKIEDLIQSMHIDATLYTESDVHPSCKVTAMKCFLLELQRISLESGDASIHDTVENLIILANNSLSSNGNVTESGCKECEELEEKNIKEFLQSFVHIVQMFINTGGGGSGHHHHHHHHGGGLNDIFEAQKIEWHE | 103 nM | > 500 nM |
| hIL-15 V49R/S7E (ligand) NWVNVIEDLKKIEDLIQSMHIDATLYTESDVHPSCKVTAMKCFLLELQRISLESGDASIHDTVENLIILANNSLSSNGNVTESGCKECEELEEKNIKEFLQSFVHIVQMFINTGGGGSGHHHHHHHHGGGLNDIFEAQKIEWHE | 87.6 nM | > 500 nM |
| hIL-15 V49R/S29K (ligand) NWVNVISDLKKIEDLIQSMHIDATLYTEKDVHPSCKVTAMKCFLLELQRISLESGDASIHDTVENLIILANNSLSSNGNVTESGCKECEELEEKNIKEFLQSFVHIVQMFINTGGGGSGHHHHHHHHGGGLNDIFEAQKIEWHE | 261 nM | 248 nM |
| hIL-15 V49R/N4Q (ligand) NWVQVISDLKKIEDLIQSMHIDATLYTESDVHPSCKVTAMKCFLLELQRISLESGDASIHDTVENLIILANNSLSSNGNVTESGCKECEELEEKNIKEFLQSFVHIVQMFINTGGGGSGHHHHHHHHGGGLNDIFEAQKIEWHE | 59.5 nM | > 500 nM |
| hIL-15 V49R/S7Q (ligand) NWVNVIQDLKKIEDLIQSMHIDATLYTESDVHPSCKVTAMKCFLLELQRISLESGDASIHDTVENLIILANNSLSSNGNVTESGCKECEELEEKNIKEFLQSFVHIVQMFINTGGGGSGHHHHHHHHGGGLNDIFEAQKIEWHE | 88.1 nM | 215 nM |
| hIL-15 V49R/Q108S (ligand) NWVNVISDLKKIEDLIQSMHIDATLYTESDVHPSCKVTAMKCFLLELQRISLESGDASIHDTVENLIILANNSLSSNGNVTESGCKECEELEEKNIKEFLQSFVHIVSMFINTGGGGSGHHHHHHHHGGGLNDIFEAQKIEWHE | 144 nM | 290 nM |
| hIL-15 V49R/N72S (ligand) NWVNVISDLKKIEDLIQSMHIDATLYTESDVHPSCKVTAMKCFLLELQRISLESGDASIHDTVENLIILANSSLSSNGNVTESGCKECEELEEKNIKEFLQSFVHIVQMFINTGGGGSGHHHHHHHHGGGLNDIFEAQKIEWHE | 118 nM | 182 nM |
| hIL-15 V49R/S7A (ligand) NWVNVIADLKKIEDLIQSMHIDATLYTESDVHPSCKVTAMKCFLLELQRISLESGDASIHDTVENLIILANNSLSSNGNVTESGCKECEELEEKNIKEFLQSFVHIVQMFINTGGGGSGHHHHHHHHGGGLNDIFEAQKIEWHE | 84 nM | 220 nM |
| hIL-15 V49R/N72D (ligand) NWVNVISDLKKIEDLIQSMHIDATLYTESDVHPSCKVTAMKCFLLELQRISLESGDASIHDTVENLIILANDSLSSNGNVTESGCKECEELEEKNIKEFLQSFVHIVQMFINTGGGGSGHHHHHHHHGGGLNDIFEAQKIEWHE | 105 nM | 101 nM |
| hIL-15 V49R/N72A (ligand) NWVNVISDLKKIEDLIQSMHIDATLYTESDVHPSCKVTAMKCFLLELQRISLESGDASIHDTVENLIILANASLSSNGNVTESGCKECEELEEKNIKEFLQSFVHIVQMFINTGGGGSGHHHHHHHHGGGLNDIFEAQKIEWHE | 117 nM | 148 nM |
| hIL-15 V49R/S7H (ligand) NWVNVIHDLKKIEDLIQSMHIDATLYTESDVHPSCKVTAMKCFLLELQRISLESGDASIHDTVENLIILANNSLSSNGNVTESGCKECEELEEKNIKEFLQSFVHIVQMFINTGGGGSGHHHHHHHHGGGLNDIFEAQKIEWHE | 75.6 nM | 354 nM |
| hIL-15 V49R/S29D (ligand) NWVNVISDLKKIEDLIQSMHIDATLYTEDDVHPSCKVTAMKCFLLELQRISLESGDASIHDTVENLIILANNSLSSNGNVTESGCKECEELEEKNIKEFLQSFVHIVQMFINTGGGGSGHHHHHHHHGGGLNDIFEAQKIEWHE | 121 nM | 238 nM |
| hIL-15 V49R/N4M (ligand) NWVMVISDLKKIEDLIQSMHIDATLYTESDVHPSCKVTAMKCFLLELQRISLESGDASIHDTVENLIILANNSLSSNGNVTESGCKECEELEEKNIKEFLQSFVHIVQMFINTGGGGSGHHHHHHHHGGGLNDIFEAQKIEWHE | 88.1 nM | 233 nM |
| hIL-15 V49R/N65D (ligand) NWVNVISDLKKIEDLIQSMHIDATLYTESDVHPSCKVTAMKCFLLELQRISLESGDASIHDTVEDLIILANNSLSSNGNVTESGCKECEELEEKNIKEFLQSFVHIVQMFINTGGGGSGHHHHHHHHGGGLNDIFEAQKIEWHE | 121 nM | > 500 nM |
| hIL-15 V49R/S7R (ligand) NWVNVIRDLKKIEDLIQSMHIDATLYTESDVHPSCKVTAMKCFLLELQRISLESGDASIHDTVENLIILANNSLSSNGNVTESGCKECEELEEKNIKEFLQSFVHIVQMFINTGGGGSGHHHHHHHHGGGLNDIFEAQKIEWHE | 77 nM | > 500 nM |
| hIL-15 V49R/Q108A (ligand) NWVNVISDLKKIEDLIQSMHIDATLYTESDVHPSCKVTAMKCFLLELQRISLESGDASIHDTVENLIILANNSLSSNGNVTESGCKECEELEEKNIKEFLQSFVHIVAMFINTGGGGSGHHHHHHHHGGGLNDIFEAQKIEWHE | 161 nM | 462 nM |
| hIL-15 V49R/Q108D (ligand) NWVNVISDLKKIEDLIQSMHIDATLYTESDVHPSCKVTAMKCFLLELQRISLESGDASIHDTVENLIILANNSLSSNGNVTESGCKECEELEEKNIKEFLQSFVHIVDMFINTGGGGSGHHHHHHHHGGGLNDIFEAQKIEWHE | 125 nM | 215 nM |
| hIL-15 V49R/N65K (ligand) NWVNVISDLKKIEDLIQSMHIDATLYTESDVHPSCKVTAMKCFLLELQRISLESGDASIHDTVEKLIILANNSLSSNGNVTESGCKECEELEEKNIKEFLQSFVHIVQMFINTGGGGSGHHHHHHHHGGGLNDIFEAQKIEWHE | 201 nM | 193 nM |
| hIL-15 V49R/S7G (ligand) NWVNVIGDLKKIEDLIQSMHIDATLYTESDVHPSCKVTAMKCFLLELQRISLESGDASIHDTVENLIILANNSLSSNGNVTESGCKECEELEEKNIKEFLQSFVHIVQMFINTGGGGSGHHHHHHHHGGGLNDIFEAQKIEWHE | 147 nM | > 500 nM |
| hIL-15 V49R/S7N (ligand) NWVNVINDLKKIEDLIQSMHIDATLYTESDVHPSCKVTAMKCFLLELQRISLESGDASIHDTVENLIILANNSLSSNGNVTESGCKECEELEEKNIKEFLQSFVHIVQMFINTGGGGSGHHHHHHHHGGGLNDIFEAQKIEWHE | 93.2 nM | > 500 nM |
| hIL-15 V49R/N72K (ligand) NWVNVISDLKKIEDLIQSMHIDATLYTESDVHPSCKVTAMKCFLLELQRISLESGDASIHDTVENLIILANKSLSSNGNVTESGCKECEELEEKNIKEFLQSFVHIVQMFINTGGGGSGHHHHHHHHGGGLNDIFEAQKIEWHE | 101 nM | > 500 nM |
| hIL-15 V49R/S29A (ligand) NWVNVISDLKKIEDLIQSMHIDATLYTEADVHPSCKVTAMKCFLLELQRISLESGDASIHDTVENLIILANNSLSSNGNVTESGCKECEELEEKNIKEFLQSFVHIVQMFINTGGGGSGHHHHHHHHGGGLNDIFEAQKIEWHE | 154 nM | 274 nM |
